In experiment [1] the target is T1, sMepS-6×His-C (soluble MepS without its lipoprotein signal peptide, C-terminal His-tag), P0AFV4.
T1 chain: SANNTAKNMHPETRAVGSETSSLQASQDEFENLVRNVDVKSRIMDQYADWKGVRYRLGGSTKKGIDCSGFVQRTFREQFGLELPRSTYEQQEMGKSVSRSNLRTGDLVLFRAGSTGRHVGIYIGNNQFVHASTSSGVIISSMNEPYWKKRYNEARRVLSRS
Nature of the experiment: ITC. To be noted: chain shown with the change.

For experiment [2], the target named is Prc (full-length, C-terminal His-tag) (E. coli) (UniProt P23865).
For experiment [3] the target is unchanged. The experiment is described as follows: ITC; iTC200, 20 °C, 20 mM HEPES pH 7.5, 300 mM NaCl, 2 mM 2-mercaptoethanol; 23 µM sMepS or Prc in the cell, 230 µM sNlpI (alone or with equimolar Prc) in the syringe; one binding site model.
Experiment [4] deals with sMepS-6×His-C (soluble MepS without its lipoprotein signal peptide, C-terminal His-tag) (E. coli) (UniProt P0AFV4). Described as above.

Here are results for 2 molecules from paper PMC5686067.

Prc (full-length, C-terminal His-tag) (E. coli), sequence (P23865 23-682 limits assumed): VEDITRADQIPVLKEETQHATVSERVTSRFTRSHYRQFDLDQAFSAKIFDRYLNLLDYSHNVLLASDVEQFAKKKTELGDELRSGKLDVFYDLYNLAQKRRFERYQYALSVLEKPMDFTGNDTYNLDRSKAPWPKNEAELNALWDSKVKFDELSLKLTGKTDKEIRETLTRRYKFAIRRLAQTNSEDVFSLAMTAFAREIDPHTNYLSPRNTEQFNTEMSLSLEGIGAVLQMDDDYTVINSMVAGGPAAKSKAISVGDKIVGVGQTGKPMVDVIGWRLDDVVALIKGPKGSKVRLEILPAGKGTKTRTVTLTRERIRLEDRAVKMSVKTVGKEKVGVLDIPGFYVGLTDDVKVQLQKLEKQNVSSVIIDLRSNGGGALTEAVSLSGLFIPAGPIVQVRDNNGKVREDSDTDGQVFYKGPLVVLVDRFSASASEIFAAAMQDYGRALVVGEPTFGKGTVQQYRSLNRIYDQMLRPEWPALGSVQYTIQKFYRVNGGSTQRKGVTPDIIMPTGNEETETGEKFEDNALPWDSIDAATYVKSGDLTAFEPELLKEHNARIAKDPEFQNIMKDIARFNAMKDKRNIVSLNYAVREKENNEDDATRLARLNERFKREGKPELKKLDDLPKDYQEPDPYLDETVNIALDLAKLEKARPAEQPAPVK

B1: sNlpI (soluble NlpI without its lipoprotein signal peptide), P0AFB1 A114W (protein)
chain: SNTSWRKSEVLAVPLQPTLQQEVILARMEQILASRALTDDERAQLLYERGVLYDSLGLRALARNDFSQALAIRPDMPEVFNYLGIYLTQAGNFDWAYEAFDSVLELDPTYNYAHLNRGIALYYGGRDKLAQDDLLAFYQDDPNDPFRSLWLYLAEQKLDEKQAKEVLKQHFEKSDKEQWGWNIVEFYLGNISEQTLMERLKADATDNTSLAEHLSETNFYLGKYYLSLGDLDSATALFKLAVANNVHNFVEHRYALLELSLLGQDQDDLAESDQQ
On to B1, for which the Kd (commonly the constant that tells how readily two partners part at equilibrium) in experiment [1] worked out at 1450 nM.

B2: sNlpI (soluble NlpI without its lipoprotein signal peptide) (natural protein)
chain: SNTSWRKSEVLAVPLQPTLQQEVILARMEQILASRALTDDERAQLLYERGVLYDSLGLRALARNDFSQALAIRPDMPEVFNYLGIYLTQAGNFDAAYEAFDSVLELDPTYNYAHLNRGIALYYGGRDKLAQDDLLAFYQDDPNDPFRSLWLYLAEQKLDEKQAKEVLKQHFEKSDKEQWGWNIVEFYLGNISEQTLMERLKADATDNTSLAEHLSETNFYLGKYYLSLGDLDSATALFKLAVANNVHNFVEHRYALLELSLLGQDQDDLAESDQQ
Take B2: in experiment [2], the melting temperature (T m) of Prc-sNlpI in thermal shift assay (Prc alone 40.1 °C) was determined as 53.6 °C. Further, the Kd in experiment [3] is below 10 nM; in experiment [4] it was 750 nM.
